According to paper PMC6047671:

Target: human catalytic domain of MMP-14 (human)

Chain of human N-terminal domain of tissue inhibitor of metalloproteinase-2 (domain or fragment) (P16035 27-220): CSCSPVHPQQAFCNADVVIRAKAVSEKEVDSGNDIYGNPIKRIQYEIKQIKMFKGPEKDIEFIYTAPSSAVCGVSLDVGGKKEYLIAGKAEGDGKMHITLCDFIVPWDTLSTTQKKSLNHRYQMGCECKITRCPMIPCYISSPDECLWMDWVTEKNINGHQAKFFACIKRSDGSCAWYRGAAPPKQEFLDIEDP

IC50 of inhibition of hydrolysis of the FRET peptide substrate M-2350 (1 nM human cdMMP-14, 1 μM substrate): 3 nM
Substance: human N-terminal domain of tissue inhibitor of metalloproteinase-2 (domain or fragment)
